The source of these data is US20240390512A1 (Daiichi Sankyo, published 2024).

Test [1] concerns the target T1, mouse CDH6, on cells (mouse, UniProt P97326 54-790).
T1 construct: also called mCDH6; NP_031692
T1 sequence: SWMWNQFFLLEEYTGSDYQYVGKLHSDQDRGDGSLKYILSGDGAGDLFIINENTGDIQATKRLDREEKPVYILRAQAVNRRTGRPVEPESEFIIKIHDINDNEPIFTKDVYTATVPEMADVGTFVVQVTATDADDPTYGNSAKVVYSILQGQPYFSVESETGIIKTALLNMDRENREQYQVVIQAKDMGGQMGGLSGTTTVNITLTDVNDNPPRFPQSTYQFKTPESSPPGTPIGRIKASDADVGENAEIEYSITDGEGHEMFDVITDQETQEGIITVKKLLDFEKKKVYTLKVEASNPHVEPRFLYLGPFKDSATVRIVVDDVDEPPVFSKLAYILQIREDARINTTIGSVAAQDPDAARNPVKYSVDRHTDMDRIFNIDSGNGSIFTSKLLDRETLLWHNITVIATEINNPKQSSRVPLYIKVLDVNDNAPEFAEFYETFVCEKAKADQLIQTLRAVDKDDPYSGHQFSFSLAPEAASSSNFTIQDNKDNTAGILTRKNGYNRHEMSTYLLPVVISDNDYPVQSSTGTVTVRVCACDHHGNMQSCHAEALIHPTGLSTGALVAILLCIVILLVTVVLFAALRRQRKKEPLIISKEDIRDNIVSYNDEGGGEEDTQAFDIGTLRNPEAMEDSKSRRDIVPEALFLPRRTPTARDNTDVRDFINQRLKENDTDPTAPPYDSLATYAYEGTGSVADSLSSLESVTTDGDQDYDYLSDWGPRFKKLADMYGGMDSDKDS
The test can be described thus: flow cytometry; 293α cells transfected with mCDH6; PE anti-human IgG Fc(gamma) goat F(ab'). (A flow cytometer gives signals particle by particle.)

Test [2] deals with T2, rat CDH6, on cells (rat, UniProt P55280 54-789).
T2 construct: also called rCDH6; NP_037059
T2 sequence: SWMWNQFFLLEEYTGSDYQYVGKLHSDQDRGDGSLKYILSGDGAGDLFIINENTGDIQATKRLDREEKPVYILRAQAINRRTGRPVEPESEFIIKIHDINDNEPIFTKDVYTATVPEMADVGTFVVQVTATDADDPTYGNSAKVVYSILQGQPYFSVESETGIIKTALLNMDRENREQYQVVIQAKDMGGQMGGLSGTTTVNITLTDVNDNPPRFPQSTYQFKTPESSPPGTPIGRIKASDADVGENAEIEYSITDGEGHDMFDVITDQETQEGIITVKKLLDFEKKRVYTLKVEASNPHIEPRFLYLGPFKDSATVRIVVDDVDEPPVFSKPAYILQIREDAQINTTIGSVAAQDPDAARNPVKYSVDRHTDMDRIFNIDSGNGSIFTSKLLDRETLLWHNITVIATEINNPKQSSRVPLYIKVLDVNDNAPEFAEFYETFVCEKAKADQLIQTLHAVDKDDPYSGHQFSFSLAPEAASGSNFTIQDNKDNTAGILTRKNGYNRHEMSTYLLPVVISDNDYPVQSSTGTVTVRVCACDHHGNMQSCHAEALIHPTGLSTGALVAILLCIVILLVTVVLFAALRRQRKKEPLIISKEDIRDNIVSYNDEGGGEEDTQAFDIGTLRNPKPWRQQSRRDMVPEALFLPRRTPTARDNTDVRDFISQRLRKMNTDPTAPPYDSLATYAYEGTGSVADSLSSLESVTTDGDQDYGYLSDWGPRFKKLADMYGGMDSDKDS
Description: flow cytometry; 293α cells transfected with rCDH6; PE anti-human IgG Fc(gamma) goat F(ab').

Test [3] deals with T3, EC3 deletion mutant of human CDH6, on cells (human, UniProt P55285 54-790).
T3 construct: in p3×FLAG-CMV-9; also called EC3-deleted hCDH6
T3 sequence: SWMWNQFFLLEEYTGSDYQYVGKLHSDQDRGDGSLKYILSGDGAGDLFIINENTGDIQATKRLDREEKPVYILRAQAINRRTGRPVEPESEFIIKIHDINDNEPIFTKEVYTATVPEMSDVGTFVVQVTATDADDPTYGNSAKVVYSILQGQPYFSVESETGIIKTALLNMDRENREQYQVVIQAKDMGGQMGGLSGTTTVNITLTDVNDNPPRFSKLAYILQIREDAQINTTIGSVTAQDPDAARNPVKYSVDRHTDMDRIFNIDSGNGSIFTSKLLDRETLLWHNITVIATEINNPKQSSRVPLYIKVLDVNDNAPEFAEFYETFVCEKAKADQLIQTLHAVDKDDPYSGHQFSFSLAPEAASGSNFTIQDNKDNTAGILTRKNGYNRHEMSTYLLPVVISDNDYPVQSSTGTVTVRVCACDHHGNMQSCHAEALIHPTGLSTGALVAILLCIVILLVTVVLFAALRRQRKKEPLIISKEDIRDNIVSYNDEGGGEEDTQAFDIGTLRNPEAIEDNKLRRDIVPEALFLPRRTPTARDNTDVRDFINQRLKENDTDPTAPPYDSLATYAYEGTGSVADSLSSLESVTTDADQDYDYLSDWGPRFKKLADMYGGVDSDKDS
The test can be described thus: flow cytometry; 293α cells transfected with EC3-deleted hCDH6 (open line) against untransfected 293α cells (shaded); APC anti-human IgG goat F(ab')2; antibody concentration not given.

Test [4] deals with T4, Recombinant Human CDH6 Fc His chimera (R&D Systems, Inc.) (human, UniProt P55285 54-615).
T4 construct: Bought reagent; also called the antigen; human CDH6 antigen; Fc part of the bought chimera not given; His tag of the bought chimera
T4 sequence: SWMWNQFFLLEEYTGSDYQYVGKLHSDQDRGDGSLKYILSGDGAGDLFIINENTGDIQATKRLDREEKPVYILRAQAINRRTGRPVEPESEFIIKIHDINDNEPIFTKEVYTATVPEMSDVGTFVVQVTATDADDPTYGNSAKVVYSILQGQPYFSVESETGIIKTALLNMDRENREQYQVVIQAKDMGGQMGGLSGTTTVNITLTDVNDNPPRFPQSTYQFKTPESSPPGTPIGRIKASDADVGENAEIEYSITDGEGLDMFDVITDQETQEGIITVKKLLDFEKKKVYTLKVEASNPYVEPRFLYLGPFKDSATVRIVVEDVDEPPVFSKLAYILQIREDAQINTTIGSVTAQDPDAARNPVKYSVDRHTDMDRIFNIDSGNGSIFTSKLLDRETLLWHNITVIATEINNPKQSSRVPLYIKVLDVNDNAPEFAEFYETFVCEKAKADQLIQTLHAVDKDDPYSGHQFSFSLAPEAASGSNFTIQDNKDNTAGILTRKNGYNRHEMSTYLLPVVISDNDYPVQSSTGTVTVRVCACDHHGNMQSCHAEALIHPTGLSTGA
The test can be described thus: SPR (Biacore T200); antigen captured by immobilized anti-His antibody, antibody as analyte 0.391 to 100 nM; steady state affinity model. (In SPR one partner is held on a chip, and binding of the other changes the refractive index at the surface.)

In test [5] the target is T5, human CDH6 (cadherin-6), full-length, on cells (human, UniProt P55285 54-790).
T5 construct: also called hCDH6; full-length hCDH6
T5 sequence: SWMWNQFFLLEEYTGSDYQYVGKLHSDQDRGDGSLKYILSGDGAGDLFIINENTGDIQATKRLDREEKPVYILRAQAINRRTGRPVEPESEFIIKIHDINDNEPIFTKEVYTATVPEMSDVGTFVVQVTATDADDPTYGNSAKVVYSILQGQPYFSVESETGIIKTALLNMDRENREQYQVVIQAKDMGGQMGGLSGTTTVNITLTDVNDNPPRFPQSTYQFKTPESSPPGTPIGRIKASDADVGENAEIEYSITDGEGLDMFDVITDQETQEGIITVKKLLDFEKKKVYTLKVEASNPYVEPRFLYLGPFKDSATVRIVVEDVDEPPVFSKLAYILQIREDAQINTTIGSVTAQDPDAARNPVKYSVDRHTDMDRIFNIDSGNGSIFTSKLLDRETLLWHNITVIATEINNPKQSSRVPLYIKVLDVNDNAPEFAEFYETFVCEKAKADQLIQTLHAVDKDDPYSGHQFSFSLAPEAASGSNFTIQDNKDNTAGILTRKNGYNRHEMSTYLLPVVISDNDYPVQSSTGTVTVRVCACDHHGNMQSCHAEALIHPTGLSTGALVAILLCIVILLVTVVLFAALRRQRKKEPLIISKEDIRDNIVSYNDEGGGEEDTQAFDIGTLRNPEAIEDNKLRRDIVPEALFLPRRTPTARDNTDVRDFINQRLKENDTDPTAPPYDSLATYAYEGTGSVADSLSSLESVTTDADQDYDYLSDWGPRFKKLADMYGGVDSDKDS
The test can be described thus: flow cytometry; 293α cells transfected with full-length hCDH6 (open line) against untransfected 293α cells (shaded); APC anti-human IgG goat F(ab')2; antibody concentration not given.

The target in test [6] is T6, EC5 deletion mutant of human CDH6, on cells (human, UniProt P55285 54-790).
T6 construct: in p3×FLAG-CMV-9; also called EC5-deleted hCDH6
T6 sequence: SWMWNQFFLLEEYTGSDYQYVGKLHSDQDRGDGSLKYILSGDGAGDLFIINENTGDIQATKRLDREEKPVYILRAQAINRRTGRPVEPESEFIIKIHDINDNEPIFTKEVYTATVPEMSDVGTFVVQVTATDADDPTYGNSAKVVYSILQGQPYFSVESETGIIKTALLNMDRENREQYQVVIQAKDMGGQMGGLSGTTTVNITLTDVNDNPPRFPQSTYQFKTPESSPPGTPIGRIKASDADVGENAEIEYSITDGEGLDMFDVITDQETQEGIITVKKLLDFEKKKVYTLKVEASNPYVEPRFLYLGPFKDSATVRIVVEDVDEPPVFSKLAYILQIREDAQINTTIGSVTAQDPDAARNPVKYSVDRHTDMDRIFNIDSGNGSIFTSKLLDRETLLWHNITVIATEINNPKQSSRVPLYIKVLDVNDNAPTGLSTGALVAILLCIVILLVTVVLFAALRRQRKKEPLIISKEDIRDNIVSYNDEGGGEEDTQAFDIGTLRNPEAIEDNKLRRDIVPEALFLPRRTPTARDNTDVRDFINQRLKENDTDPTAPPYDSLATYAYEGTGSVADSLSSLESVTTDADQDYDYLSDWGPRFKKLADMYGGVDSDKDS
The test can be described thus: flow cytometry; 293α cells transfected with EC5-deleted hCDH6 (open line) against untransfected 293α cells (shaded); APC anti-human IgG goat F(ab')2; antibody concentration not given.

B1: humanized anti-CDH6 antibody H04L02 (antibody, human IgG1, kappa, V domains shown)
VH: QVQLVQSGAEVKKPGASVKVSCKASGYTFTRNFMHWIRQAPGQGLEWMGWIYPGDGETEYAQKFQGRVTLTADRSTSTAYMELSSLRSEDTAVYYCARGVYGGFAGGYFDFWGQGTLVTVSS
VL: DIQMTQSPSSLSASVGDRVTITCKASQNIYKNLAWYQQKPGKAPKLLIYDANTLQTGVPSRFSGSGSGSDFTLTISSLQPEDFATYFCQQYYSGWAFGQGTKVEIKR
notes: hH04 heavy chain and hL02 light chain, human IgG1 / kappa; also called H04L02 antibody
For orientation: Kd means the concentration at which binding is half-saturated. In the case of B1, the binding result in test [1] is “no binding (tested: about 4, unit not printed on the axis)”; in test [2], “no binding (tested: about 4, unit not printed on the axis)”; in test [3], “no binding”. Moreover, in test [4], the dissociation constant (Kd) came out at 1.1 nM.

B2: anti-CDH6 antibody NOV0712 (antibody, human IgG1, kappa, V domains shown)
VH: QVQLLESGGGLVQPGGSLRLSCAASGFTFSSHGMHWVRQAPGKGLEWVSVISGSGSNTGYADSVKGRFTISRDNSKNTLYLQMNSLRAEDTAVYYCARQWGSYAFDSWGQGTLVTVSS
VL: DIQMTQSPSSLSASVGDRVTITCRASQSISSYLNWYQQKPGKAPKLLIYAVSTLQSGVPSRFSGSGSGTDFTLTISSLQPEDFATYYCQQSGTFPPTTFGQGTKVEIKR
notes: Made after WO 2016/024195; also called NOV0712 antibody
For B2, the binding result is listed as “binds” in test [5] and “no binding” in test [6].
